Reference: patent US20070173444A1 (AFFYMAX, published 2007)
Bridge positions count the residues as written; N and C are the ends. Ends that are not written are not given here.

T1: native IL-5R a/β complex on TF-1 cells (human, UniProt Q01344 21-420; P32927 17-897)
T1 sequence (looked up) 1: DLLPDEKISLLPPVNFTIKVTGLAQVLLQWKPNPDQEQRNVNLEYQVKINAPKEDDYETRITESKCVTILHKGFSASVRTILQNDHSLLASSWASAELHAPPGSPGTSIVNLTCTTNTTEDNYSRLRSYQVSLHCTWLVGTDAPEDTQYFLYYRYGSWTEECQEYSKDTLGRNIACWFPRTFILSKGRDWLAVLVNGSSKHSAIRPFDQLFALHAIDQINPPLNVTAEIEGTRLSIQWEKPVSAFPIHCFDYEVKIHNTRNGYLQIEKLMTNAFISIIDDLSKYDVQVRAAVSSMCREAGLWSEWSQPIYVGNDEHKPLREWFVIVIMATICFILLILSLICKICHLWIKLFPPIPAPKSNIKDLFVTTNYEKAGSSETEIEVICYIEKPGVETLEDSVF
T1 sequence (looked up) 2: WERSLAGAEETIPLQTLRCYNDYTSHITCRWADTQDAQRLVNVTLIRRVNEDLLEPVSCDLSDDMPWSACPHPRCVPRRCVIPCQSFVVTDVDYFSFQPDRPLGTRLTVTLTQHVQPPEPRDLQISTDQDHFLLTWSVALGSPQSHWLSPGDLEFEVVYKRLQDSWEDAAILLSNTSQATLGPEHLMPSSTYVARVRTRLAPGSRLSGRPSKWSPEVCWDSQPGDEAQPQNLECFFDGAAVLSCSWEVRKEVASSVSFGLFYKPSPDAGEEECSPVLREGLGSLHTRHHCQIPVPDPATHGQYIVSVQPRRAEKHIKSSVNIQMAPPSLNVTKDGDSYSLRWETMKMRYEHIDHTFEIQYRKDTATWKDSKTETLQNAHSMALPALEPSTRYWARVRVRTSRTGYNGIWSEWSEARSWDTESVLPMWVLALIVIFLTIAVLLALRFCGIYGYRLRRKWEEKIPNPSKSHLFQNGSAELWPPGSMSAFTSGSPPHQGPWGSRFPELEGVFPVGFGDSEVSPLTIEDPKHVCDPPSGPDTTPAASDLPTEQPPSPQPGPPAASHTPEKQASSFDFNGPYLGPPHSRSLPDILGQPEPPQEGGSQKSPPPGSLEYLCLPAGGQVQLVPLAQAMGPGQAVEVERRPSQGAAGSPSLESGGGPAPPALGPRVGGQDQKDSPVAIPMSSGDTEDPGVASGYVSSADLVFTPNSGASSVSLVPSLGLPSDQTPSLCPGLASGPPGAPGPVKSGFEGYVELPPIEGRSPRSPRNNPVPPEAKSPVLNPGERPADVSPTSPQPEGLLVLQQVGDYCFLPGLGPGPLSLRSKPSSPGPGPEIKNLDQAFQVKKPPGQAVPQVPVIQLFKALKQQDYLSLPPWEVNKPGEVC

T2: IL-5RaECD (the extracellular domain (ECD) of the human IL-5 receptor a chain) (human, UniProt Q01344 21-342, extensively glycosylated)
T2 construct: extracellular domain; also called IL-5RαECD; soluble IL-5Ra
T2 sequence (Q01344 21-342, looked up): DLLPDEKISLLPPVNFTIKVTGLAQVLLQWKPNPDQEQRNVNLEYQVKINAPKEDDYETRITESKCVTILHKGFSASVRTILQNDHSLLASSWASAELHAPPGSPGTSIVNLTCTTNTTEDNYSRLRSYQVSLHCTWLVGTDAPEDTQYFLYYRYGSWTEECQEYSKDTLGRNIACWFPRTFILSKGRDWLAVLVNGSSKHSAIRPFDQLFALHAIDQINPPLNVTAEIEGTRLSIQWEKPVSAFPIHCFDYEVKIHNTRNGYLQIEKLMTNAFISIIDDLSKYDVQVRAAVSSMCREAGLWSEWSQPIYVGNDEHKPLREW

B1: AF 18748 (a dimer of residues 32-50 of SEQ ID NO: 8) (peptide)
peptide: H-TGGGDGYVCVEWARCPTCK-OH
modifications: disulfide 15-18; also: homodimer via interchain disulfide Cys9-Cys9
notes: Synthetic dimer made with orthogonal protecting groups
B2: dimeric form of AF17362 (peptide)
peptide: TGGGDGYVCVEWARCPTCK
modifications: disulfide 15-18; also: dimer, interchain disulfide between Cys9 of each chain
notes: Formed by air oxidation in 50 mM Tris pH 7.8; said to be indistinguishable from AF18748; also called AF17362 after 10 days at room temperature; spontaneously formed disulfide-linked dimer

Assays:
[1] = biological target: T1, native IL-5R a/β complex on TF-1 cells; test: cell-based or functional assay
[2] = biological target: T1, native IL-5R a/β complex on TF-1 cells; test: cell-based or functional assay; remark: listed apart in the source
[3] = biological target: chimeric IL-5Ra/EGFR receptor (human, UniProt Q01344 21-342); test: cell-based or functional assay
[4] = biological target: T2, IL-5RaECD (the extracellular domain …); test: competition with [125I] IL-5 for binding to IL-5Ra ECD
Experimental: (§1) Binding affinities of synthetic peptides for IL-5Ra were measured in a competition binding assay using radio-iodinated IL-5. Immulon 4 (Dynatech) microtiter wells were coated with streptavidin (Sigma) by incubating 100 ul of a 50 ug/ml solution in PBS for 30 min. at 37. The wells were blocked with 200 ul of 1% BSA in PBS for 15 min. at 37, followed by 100 III of biotinylated monoclonal antibody, designated mAb 179, at 5 u. g/ml in PBS. Soluble IL-5Ra was then immobilized in the wells by incubating 100 µl of a solution of soluble receptor harvest diluted 1: 5000 in PBS/0.1% BSA for 1 hr. at 4. After washing away unbound receptor, 50 ul of various concentrations of test peptide diluted in PBS/0.1% BSA were added to the wells, followed by 50 µl of a fixed concentration of [₁₂₅I] IL-5 (Amersham). The binding reactions were incubated at 4 C for 2 hr, then washed with PBS to remove unbound [₁₂₅I] IL-5. Bound [₁₂₅I] IL-5 was determined by gamma counting.
(§2) Total binding was defined by the amount of [₁₂₅I] IL-5 bound in the absence of any competitor. Non-specific binding was defined by the amount of [₁₂₅I] IL-5 bound in the presence of 30 nM IL-5. Peptide binding data was analyzed to determine the peptide concentration required to reduce specific [₁₂₅I]

[5] = biological target: T1, native IL-5R a/β complex on TF-1 cells; test: competition with [125I] IL-5 binding to TF-1 cells; AF 18748 as competitor
[6] = biological target: T2, IL-5RaECD (the extracellular domain …); test: scintillation proximity competition assay, 20 pM [125I] IL-5, soluble IL-5Ra on beads; dimer of the printed monomer
Experimental: Binding affinities of synthetic peptides for IL-5Ra were measured in a scintillation proximity assay (SPA) using radio-iodinated IL-5. Streptavidin coated SPA beads (Amersham) were suspended in IL-5 binding buffer (phosphate buffered saline, 0.1% bovine serum albumin, 0.2% NaN3) at 2 mg beads/ml of buffer. Biotinylated mAb 179 was adsorbed onto the beads at a ratio of 2 ig Ab/mg beads by incubating the beads and antibody with agitation for at least 2 h. at 4. The beads were pelleted at 2500 rpm and resuspended at 2 mg/ml in binding buffer. Soluble IL-5Ra was then adsorbed onto the beads by diluting a solution of soluble receptor harvest 1:500 into the bead suspension and incubating with agitation for 2 hr at 4. The beads were again pelleted at 2500 rpm and resuspended at 2 mg/ml in binding buffer. Competition binding assays were carried out in 100p1 reactions in white polystyrene microtiter plates. These reactions contained 0.05 mg of receptor coated SPA beads, various concentrations of test peptide diluted in binding buffer, and 20 pM [₁₂₅I] IL-5 (Amersham). The plates were incubated at room temperature for 1 hour with agitation, then centrifuged for 5 min at 1500 rpm followed by scintillation counting on a Topcount instrument (Packard). Total binding was defined by the amount of [₁₂₅I] IL-5 bound in the absence of any competitor. Non-specific binding was defined by the amount of [₁₂₅I] IL-5 bound in the presence of 30 nM IL-5. Peptide binding data was analyzed to determine the peptide concentration required to reduce specific [₁₂₅I] IL-5 binding by 50% (IC₅₀). In each instance, the dimer has both intramolecular and intermolecular disulfide linkages as shown generically below: […]

[7] = biological target: T2, IL-5RaECD (the extracellular domain …); test: competition with [125I] IL-5 for binding to IL-5Ra ECD; peptide after 10 days (disulfide-linked dimer)
Experimental: as §1, §2

Row | Binder | inhibition of IL-5 induced human eosinophil adhesion to immobilized IgG, IC50 [1] [pM] | Microphysiometer pIC50 (block of TF-1 cell response to IL-5) [2] | EC50 (read off the curve), luciferase reporter activity of IL-5Ra/EGFR Ba/F3 cells [3] [pM] | IC50 [4] [pM] | IC50 [5] [pM] | SPA pIC50 [6] | IC50 [7] [pM]
1 | B1 | 348 | 9.6 negative log of the molar IC50 | ~30 | 780 | 400 | 9.1 negative log of the molar IC50 | –
2 | B2 | – | – | – | – | – | – | 550
